The source of these data is patent US20260109787A1 (NATIONAL UNIVERSITY CORPORATION YAMAGATA UNIVERSITY, published 2026).

Experiment [1] concerns the target T1, VHH-SnoopCatcher (fragment released from VHH-SnoopCatcher-Herceptin H chain by thrombin).
T1 construct: Seen only as a band on SDS-PAGE, together with VHH-SnoopTag
Nature of the experiment: SDS-PAGE of the purified thrombin-cleaved sample.

In experiment [2] the target is T2, VHH-SpyCatcher (fragment released from VHH-SpyCatcher-CD3 H chain by thrombin).
T2 construct: Seen only as a band on SDS-PAGE, together with VHH-SpyTag
Nature of the experiment: SDS-PAGE of the purified thrombin-cleaved sample.

Experiment [3] deals with T3, VHH-SpyCatcher-CD3 H chain.
T3 construct: Fusion protein expressed in Expi293F cells; also called second protein; VHH-SpyCatcher-CD3 H chain region
Nature of the experiment: SDS-PAGE before and after thrombin cleavage; the complex bands are lost after cleavage. The procedure:
Next, it was examined whether the band at the estimated molecular weight of the complex in Example 1(3) above was derived from the complex that included the VHH-SpyTag-CD3 L chain and the VHH-SpyCatcher-CD3 H chain. Specifically, the protein was purified in the same manner as in Example 1(2) above, and the elution fraction after the purification was added to a thrombin buffer (2.5 mmol/l CaCl₂), 150 mmol/l NaCl, 20 mmol/l Tris-HCl (pH8.0)). After the addition, the resulting mixture was dialyzed for 6 hours. Then, thrombin (cleaving ability: 2 unit/μl, manufactured by Wako Pure Chemical Industries, Ltd.) was added in accordance with the yield of the protein. After the addition, the mixture was left to stand at 25° C. overnight. After the standing, a sample after the cleavage reaction was purified using a protein A column. After the purification, a purified thrombin-cleaved sample was obtained. Then, SDS-PAGE was conducted. The SDS-PAGE was conducted in the same manner as in Example 1(3) above, except that the purified thrombin-cleaved sample was used as a sample for the SDS-PAGE in addition to the purified sample. […]

B1: VHH-SnoopTag (fragment released from VHH-SnoopTag-Herceptin L chain by thrombin) (other, not shown: small tags and cut ends)
chain: QVQLVESGGALVQPGGSLRLSCAASGFPVNRYSMRWYRQAPGKEREWVAGMSSAGDRSSYEDSVKGRFTISRDDARNTVYLQMNSLKPEDTAVYYCNVNVGFEYWGQGTQVTVSSGGSGGKLGDIEFIKVNKGGSGGGGSGG
notes: Seen only as a band on SDS-PAGE, together with VHH-SnoopCatcher
For B1, in experiment [1], the binding result is “binds”.

B2: VHH-SpyTag (fragment released from VHH-SpyTag-CD3 L chain by thrombin) (other, not shown: small tags and cut ends)
chain: QVQLVESGGALVQPGGSLRLSCAASGFPVNRYSMRWYRQAPGKEREWVAGMSSAGDRSSYEDSVKGRFTISRDDARNTVYLQMNSLKPEDTAVYYCNVNVGFEYWGQGTQVTVSSGGSGGAHIVMVDAYKPTKGGSGGGGSGG
notes: Seen only as a band on SDS-PAGE, together with VHH-SpyCatcher
Turning to B2, the binding result in experiment [2] is on record as “binds”.

B3: VHH-SpyTag-CD3 L chain (other)
chain: QVQLVESGGALVQPGGSLRLSCAASGFPVNRYSMRWYRQAPGKEREWVAGMSSAGDRSSYEDSVKGRFTISRDDARNTVYLQMNSLKPEDTAVYYCNVNVGFEYWGQGTQVTVSSGGSGGAHIVMVDAYKPTKGGSGGGGSGGLVPRGSHMHMDIVLTQSPAIMSASPGEKVTMTCSASSSVSYMNWYKQKSGTSPKRWTYDTSKLASGVPARFSGSGSGTSYSLTISSMEAEDAATYYCQQWSSNPPTFGSGTKLEIKRTVAAPSVFIFPPSDEQLKSGTASVVCLLNNFYPREAKVQWKVDNALQSGNSQESVTEQDSKDSTYSLSSTLTLSKADYEKHKVYACEVTHQGLSSPVTKSFNRGEC
notes: Fusion protein expressed in Expi293F cells; also called first protein; VHH-SpyTag-CD3 L chain region
For B3, the binding result in experiment [3] is listed as “binds”.
